Reference: PMC4427307

Molecular target: human insulin (human)
Test: BLI; Octet Red, 96-well microplates, 25°C; biotinylated human insulin (12.5-50 μg/ml) immobilised on Streptavidin Biosensors; rSjLD1 (3.5-56 μg/ml) or rSjLD2 (1.78-56 μg/ml) in solution; kinetic buffer (1mM phosphate, 15mM NaCl, 0.1mg/ml BSA, 0.002% Tween-20); association 1000 s, dissociation …; double reference subtraction (BSA negative control and sensor)

For “recombinant L1 subdomain of Schistosoma japonicum insulin receptor 1 (SjLD1), expressed in Drosophila S2 cells (domain or fragment)”, the Kd was 64.4 nM.
Work on “recombinant L1 subdomain of Schistosoma japonicum insulin receptor 2 (SjLD2), expressed in Drosophila S2 cells (domain or fragment)” yielded a Kd of 8.78 nM.
